Experimental data from patent US20020055467A1 (Biogen, published 2002).

Biological target: T1, fusion protein between the extracellular domain of rat RET and placental alkaline phosphatase (rat, UniProt G3V9H8 24-637)
T1 construct: extracellular domain; Used as conditioned medium from 293 EBNA cells; Construct described in Sanicola et al. 1997; also called RET-AP
Experiment: ternary complex assay without ligand (parental CHO medium or straight medium)
Procedure: Dynex Microlite-1 ELISA plates (Dynex Technologies) were coated with 1 μg/ml goat antibody specific for human Fc in 50 mM bicarbonate/carbonate, pH 9.6 for 16 hr. The plates were emptied and filled with 300 μl of 1% I-block (Tropix) in TBS/0.5% Tween-20 (TBST), for 1 hr. After washing three times with TBST the wells were filled with 100 μl of 1 μg/ml rGFRα1-Ig or mGFRα3-Ig diluted in conditioned media from 293 EBNA cells expressing the RET-AP fusion gene. 100 ul of conditioned media from the CHO neublastin clones was then added to the top well of a column of wells, and 2 fold serial dilutions were performed down each row of wells, and incubated for 1.5 hr at room temperature. The plates were then washed three times with TBST, and twice with 200 mM Tris pH9.8, 10 mM MgCl₂ (CSPD buffer). The wash solution was then replaced with 425 μM CSPD (Tropix) in CSPD buffer containing 1 mg/ml Sapphire chemiluminescence enhancer (Tropix), and incubated for 30′ at room temperature. The chemiluminescent output was measured using a Dynatech luminometer.
The initial experiments investigated whether neublastin produced by the CHO cell lines could mediate the binding of GFRα1 or GFRα3 to the extracellular domain of RET.

T1 sequence (G3V9H8 24-637): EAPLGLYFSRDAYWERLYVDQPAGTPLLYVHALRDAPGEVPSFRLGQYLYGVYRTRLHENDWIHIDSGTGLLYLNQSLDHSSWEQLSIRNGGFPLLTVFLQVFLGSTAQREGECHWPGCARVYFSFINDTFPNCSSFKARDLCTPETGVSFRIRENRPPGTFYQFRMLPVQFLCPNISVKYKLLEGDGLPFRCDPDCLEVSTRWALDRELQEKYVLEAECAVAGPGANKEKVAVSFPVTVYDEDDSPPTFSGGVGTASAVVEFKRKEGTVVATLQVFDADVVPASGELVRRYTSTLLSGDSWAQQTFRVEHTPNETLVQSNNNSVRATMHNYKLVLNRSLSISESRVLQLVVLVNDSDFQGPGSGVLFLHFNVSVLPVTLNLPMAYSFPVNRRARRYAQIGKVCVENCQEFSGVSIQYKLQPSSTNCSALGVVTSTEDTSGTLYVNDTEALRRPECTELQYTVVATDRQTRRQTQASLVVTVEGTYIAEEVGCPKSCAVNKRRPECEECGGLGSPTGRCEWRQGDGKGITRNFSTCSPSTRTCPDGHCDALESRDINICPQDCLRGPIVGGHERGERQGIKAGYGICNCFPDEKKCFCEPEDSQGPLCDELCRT

binding result: no binding
B1: fusion protein between the extracellular domain of rat GFRα1 and the Fc domain of human IgG1 (Fc fusion, UniProt Q62997 25-430, looked up, not shown: a dimerising Fc or GST)
chain: DRLDCVKASDQCLKEQSCSTKYRTLRQCVAGKETNFSLTSGLEAKDECRSAMEALKQKSLYNCRCKRGMKKEKNCLRIYWSMYQSLQGNDLLEDSPYEPVNSRLSDIFRAVPFISDVFQQVEHISKGNNCLDAAKACNLDDTCKKYRSAYITPCTTSMSNEVCNRRKCHKALRQFFDKVPAKHSYGMLFCSCRDIACTERRRQTIVPVCSYEERERPNCLSLQDSCKTNYICRSRLADFFTNCQPESRSVSNCLKENYADCLLAYSGLIGTVMTPNYVDSSSLSVAPWCDCSNSGNDLEDCLKFLNFFKDNTCLKNAIQAFGNGSDVTMWQPAPPVQTTTATTTTAFRVKNKPLGPAGSENEIPTHVLPPCANLQAQKLKSNVSGSTHLCLSDSDFGKDGLAGASS
notes: extracellular domain; Construct described in Sanicola et al. 1997; also called rGFRα1-Ig
